Two molecules from article PMC9294000, “Structural basis for the simultaneous recognition of NEMO and acceptor ubiquitin by the HOIP NZF1 domain” (Scientific Reports, 2022) can be followed below.

Data set [1] deals with the molecule itself. The data set can be described thus: crystal structure; hHOIP NZF1, hNEMO and linear di-ubiquitin purified separately, mixed in an equimolar ratio; sitting drops, 0.1 M Tris-HCl pH 8.5, 22% v/v PEG Smear Broad; 4.2 Å; heteropentameric complex.
Data set [2] has as its target T1, human HOIP NZF1 (hHOIP NZF1, aa. 350–379) (human, UniProt Q96EP0 350-379).
T1 construct: HOIP, human, NZF1 domain, residues 350-379; Cloned into pGEX-6p-1; also called Npl4 zinc finger 1 domain of HOIP; source: E. coli BL21 (DE3), purified (Glutathione Sepharose 4B, on-column PreScission cleavage, Superdex 75); not shown: GST, N-terminal, cleaved
T1 chain (looked up): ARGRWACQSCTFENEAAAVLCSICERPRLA
The data set is described as above. Conditions: both partners purified.

In another data set the target is T2, linear diubiquitin (UniProt P0CG48 1-76; P0CG48 1-76).
T2 construct: ubiquitin, the N-terminal (distal) unit of the head-to-tail chain; its C-terminal Gly is joined to Met1 of the next ubiquitin; ubiquitin, the C-terminal (proximal) unit of the head-to-tail chain, residues 1-76 (Leu73-Gly76 not visible in the map); Two ubiquitins on one chain, expressed from pGEX-4T-1; also called linear diubiquitin chain; source: E. coli, purified (Glutathione Sepharose 4B, …)
The data set is described as above. Conditions: both partners purified.

The target in data set [3] is T3, mouse NEMO (mNEMO, a.a. 250–339, corresponding to hNEMO 257–346) (mouse, UniProt O88522 250-339).
T3 construct: NEMO (IKKγ), mouse, residues 250-339; Cloned into pET-28a downstream of the 6xHis tag; source: E. coli BL21 (DE3), purified (Talon beads, on-column thrombin cleavage, size-exclusion chromatography); not shown: His6, N-terminal, cleaved
T3 sequence (O88522 250-339): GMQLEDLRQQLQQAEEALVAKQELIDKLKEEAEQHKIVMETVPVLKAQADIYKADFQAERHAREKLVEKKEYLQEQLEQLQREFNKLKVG
Kind of data set: SPR; Biacore S200; GST-HOIP NZF1 held on anti-GST antibodies amine-coupled to a CM5 chip, GST as control; analytes in 10 mM HEPES pH 7.4, 150 mM NaCl, 0.005% P20; mono-ubiquitin 288.0-1.1 µM, mNEMO 100.0-0.4 µM; equilibrium KD; duplicate. Conditions: both partners purified.

The target of the next data set is T4, mono-ubiquitin (UniProt P0CG48 1-76).
T4 construct: ubiquitin (mono-ubiquitin); The methods describe neither a plasmid nor a supplier for the mono-ubiquitin
The description is as above. Conditions: both partners purified.

B1: human NEMO (hNEMO, aa. 257–346) (domain or fragment, UniProt Q9Y6K9 257-346, looked up)
chain: GMQLEDLKQQLQQAEEALVAKQEVIDKLKEEAEQHKIVMETVPVLKAQADIYKADFQAERQAREKLAEKKELLQEQLEQLQREYSKLKAS
notes: NEMO (IKKγ), human, residues 257-346 (CoZi region with the UBAN domain); Coiled-coil homodimer in the crystal; Cloned into pGEX-6p-1; also called NEMO CoZi; NEMO coiled-coil 2/zinc finger (CoZi); source: E. coli BL21 (DE3), purified (Glutathione Sepharose 4B, on-column PreScission cleavage, Superdex 75); not shown: GST, N-terminal, cleaved
As for B1, the results for the “stoichiometry N” value in data set [1] and in data set [2] were 2 and 2 NEMO chains per NZF1, respectively. The binding result with linear diubiquitin is on record as “binds”.

B2: GST-HOIP NZF1(a.a. 350–379) (domain or fragment, human, UniProt Q96EP0 350-379, looked up)
chain: T1 chain (looked up)
notes: HOIP, human, NZF1 domain, residues 350-379; Held on the SPR chip by anti-GST antibodies; how the uncleaved fusion was purified is not described; source: E. coli BL21 (DE3), expressed as GST-fusion protein; not shown: GST, N-terminal, kept
Consider B2, for which the results for the Kd (in data set [3]; with mono-ubiquitin) were 86.7 µM and 135 µM, respectively.
